For assay [1], the target named is T1, soluble KDR extracellular domain (ECD) (Calbiochem) (human, UniProt P35968 20-764).
T1 construct: extracellular domain; Bought protein; also called KDR-ECD; VEGF Receptor 2 D1-7, Cat. #676490
In words: High Antigen ELISA, KDR coat 500 ng/mL, supernatant 1:25. As for the experimental part: (§1) ELISA plates were coated with a greater amount of KDR (at 500 ng/mL) in comparison with the Limited Antigen Quantitation assay described below. Sample containing antibody (Ab) was titrated on the KDR-coated ELISA plates and was incubated overnight at 4° C. to allow Ab binding to approach equilibrium. Titration of Ab in sample covered a dilution range of 1:25 to 1:18,225. A standard curve of KDR-specific antibody of known concentration was used to define the linear range of the assay. Data within the linear range were used to derive the relative concentration of KDR-specific Ab in each titrated sample. The high KDR concentration and the overnight incubation limited the effect of Ab affinity, allowing quantitation of the relative amount of KDR-specific Ab present in each sample.
Background: An ELISA detects its analyte on a solid surface through an enzyme-linked reagent.

For assay [2], the target named is T1, soluble KDR extracellular domain (ECD) …. In words: High Antigen ELISA, KDR coat 500 ng/mL, supernatant 1:2025. The protocol: as §1
The target is the same in assay [3]. Kind of assay: Limited Antigen ELISA, KDR coat 3.125 ng/mL, supernatant 1:25. The protocol: (§2) Samples containing one concentration of antibody (Ab) (1:25 dilution) were incubated overnight to allow Ab binding to approach equilibrium. The low antigen concentration limited the effect of antibody concentration, allowing ranking of the antibodies based on their relative affinity.

The target is the same in assay [4]. In words: High Antigen ELISA, KDR coat 500 ng/mL, supernatant 1:6075. As for the experimental part:
as §1

The target is the same in assay [5]. In words: Limited Antigen ELISA, KDR coat 12.5 ng/mL, supernatant 1:25. The protocol:
as §2

For assay [6] the target is unchanged. In words: Limited Antigen ELISA, KDR coat 50 ng/mL, supernatant 1:25. As for the experimental part:
as §2

The target is the same in assay [7]. In words: High Antigen ELISA, KDR coat 500 ng/mL, supernatant 1:18,225. The protocol:
as §1

The target is the same in assay [8]. Kind of assay: High Antigen ELISA, KDR coat 500 ng/mL, supernatant 1:225. As for the experimental part: as §1
The target in assay [9] is KDR endogenously expressed on human umbilical vein endothelial cells (HUVEC) (human, UniProt P35968 20-1356). In words: cell-based or functional assay.
KDR endogenously expressed on human umbilical vein endothelial cells (HUVEC), sequence (P35968 20-1356): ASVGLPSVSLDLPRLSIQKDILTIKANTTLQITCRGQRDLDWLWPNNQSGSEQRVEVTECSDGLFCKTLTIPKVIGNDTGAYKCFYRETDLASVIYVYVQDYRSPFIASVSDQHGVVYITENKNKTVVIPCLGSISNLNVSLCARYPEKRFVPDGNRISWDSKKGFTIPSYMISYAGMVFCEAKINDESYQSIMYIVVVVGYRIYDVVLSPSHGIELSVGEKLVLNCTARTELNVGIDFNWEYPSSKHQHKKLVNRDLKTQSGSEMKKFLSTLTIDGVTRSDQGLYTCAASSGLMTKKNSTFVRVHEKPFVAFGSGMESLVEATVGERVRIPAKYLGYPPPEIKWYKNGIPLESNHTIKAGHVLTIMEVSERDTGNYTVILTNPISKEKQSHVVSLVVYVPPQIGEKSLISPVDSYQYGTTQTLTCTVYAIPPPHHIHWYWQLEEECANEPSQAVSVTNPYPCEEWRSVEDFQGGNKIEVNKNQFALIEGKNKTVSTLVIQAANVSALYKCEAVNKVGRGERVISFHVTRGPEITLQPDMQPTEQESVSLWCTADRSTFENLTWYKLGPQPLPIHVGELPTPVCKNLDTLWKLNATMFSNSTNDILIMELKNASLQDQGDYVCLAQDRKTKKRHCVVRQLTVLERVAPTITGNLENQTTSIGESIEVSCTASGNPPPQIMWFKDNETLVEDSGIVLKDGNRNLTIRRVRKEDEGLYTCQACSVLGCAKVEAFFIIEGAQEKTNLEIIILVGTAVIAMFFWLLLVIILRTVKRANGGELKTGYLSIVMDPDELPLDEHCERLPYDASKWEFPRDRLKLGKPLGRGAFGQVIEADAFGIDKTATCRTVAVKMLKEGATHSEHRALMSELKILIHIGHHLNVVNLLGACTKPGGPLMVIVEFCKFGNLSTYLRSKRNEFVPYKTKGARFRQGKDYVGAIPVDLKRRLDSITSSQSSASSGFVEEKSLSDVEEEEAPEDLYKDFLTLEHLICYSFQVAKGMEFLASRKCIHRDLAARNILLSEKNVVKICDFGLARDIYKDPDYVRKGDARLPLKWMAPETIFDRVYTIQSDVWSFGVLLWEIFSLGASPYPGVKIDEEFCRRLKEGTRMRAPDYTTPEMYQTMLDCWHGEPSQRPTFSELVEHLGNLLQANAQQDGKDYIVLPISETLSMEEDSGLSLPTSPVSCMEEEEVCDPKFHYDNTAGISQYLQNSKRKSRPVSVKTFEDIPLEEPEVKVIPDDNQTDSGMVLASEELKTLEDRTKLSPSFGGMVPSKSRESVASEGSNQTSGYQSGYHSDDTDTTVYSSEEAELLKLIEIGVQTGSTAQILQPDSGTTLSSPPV
The target of assay [10] is T1, soluble KDR extracellular domain (ECD) …. In words: High Antigen ELISA, KDR coat 500 ng/mL, supernatant 1:675. As for the experimental part: as §1
Assay [11] has the same target. In words: Limited Antigen ELISA, KDR coat 6.25 ng/mL, supernatant 1:25. As for the experimental part: as §2
Assay [12] has the same target. In words: High Antigen ELISA, KDR coat 500 ng/mL, supernatant 1:75. As for the experimental part:
as §1

The target is the same in assay [13]. Kind of assay: Limited Antigen ELISA, KDR coat 25 ng/mL, supernatant 1:25. The protocol: as §2

T1 sequence (P35968 20-764): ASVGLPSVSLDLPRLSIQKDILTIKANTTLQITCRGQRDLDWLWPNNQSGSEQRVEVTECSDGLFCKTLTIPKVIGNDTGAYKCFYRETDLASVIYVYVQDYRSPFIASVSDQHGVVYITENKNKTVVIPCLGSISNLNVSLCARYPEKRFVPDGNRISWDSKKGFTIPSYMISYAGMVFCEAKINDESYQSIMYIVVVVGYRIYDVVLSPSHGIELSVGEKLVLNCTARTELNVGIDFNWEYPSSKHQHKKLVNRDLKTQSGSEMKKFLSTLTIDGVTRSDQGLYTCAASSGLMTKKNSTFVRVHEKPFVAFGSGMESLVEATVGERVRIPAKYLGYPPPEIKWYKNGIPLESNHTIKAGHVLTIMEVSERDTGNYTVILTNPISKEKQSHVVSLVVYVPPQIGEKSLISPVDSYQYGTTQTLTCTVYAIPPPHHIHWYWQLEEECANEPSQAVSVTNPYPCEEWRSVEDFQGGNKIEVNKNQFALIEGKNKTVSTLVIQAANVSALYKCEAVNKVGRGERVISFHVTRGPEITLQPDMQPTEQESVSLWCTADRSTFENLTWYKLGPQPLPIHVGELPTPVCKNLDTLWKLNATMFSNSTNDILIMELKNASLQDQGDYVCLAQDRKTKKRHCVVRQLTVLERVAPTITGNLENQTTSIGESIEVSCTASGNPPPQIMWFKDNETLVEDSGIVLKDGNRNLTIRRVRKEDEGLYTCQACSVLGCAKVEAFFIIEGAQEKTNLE

B1: 24B3 (antibody, V domains shown)
VH: EVQLVESGGGLVKPGGSLRLSCAASGFTFSTYSMNWVRQAPGKGLEWVSFISGRSSYIYYADSVKGRFTISRDNAKNSLYLQMNSLRAEDTAVYYCSKDDWFEELWGQGTLVTVSS
VL: DIQMTQSPSSLSASVGDRVTITCRASQGIRSDLGWYQQKPGKAPKRLIYATSSLQSGVPSRFSGSGSGTEFTLTISSLQPEDFATYYCLQHNRYPWTFGQGTKVEIK
notes: Fully human mAb from XenoMouse hybridoma, tested as hybridoma supernatant
Turning to B1, the ELISA reading in assay [1] was found to be 2.33; in assay [2], 0.31; in assay [3], 0.07; in [4] it was 0.13; in [5] it was 0.12; in [6], 0.38. Further, the ELISA reading in [7] was 0.08; in assay [8], 1.16; in assay [10] it was 0.79; in assay [11], 0.08; in [12], 1.58; in assay [13] it was 0.21. For the same molecule, the “VEGF-E-mediated Survival % Inhibition (Average)” value in [9] is 66%. The “VEGF-E-mediated Survival % Inhibition (n = 1)” value in [9] worked out at 65%. For the same molecule, the “VEGF-E-mediated Survival % Inhibition (n = 2)” value in assay [9] stood at 66%.

B2: 32G7 (antibody, V domains shown)
VH: EVQLVESGGGLVKPGGSLRLSCAASGFTISSYSMNWVRQAPGKGLEWVSFISSRSNYIYYADSVKGRFTISRDNAKNSLYLQMNSLRAEDTAVYYCSKDDWFEELWGQGTLVTVSS
VL: DIQMTQSPSSLSASVGDRVTITCRASQDIRNDLGWYQQKPGKAPKRLIYAASSLQSGVPSRFSGSGSGTEFTLTISSLQPEDFATYYCLQHNSFPWTFGQGTKVEIK
notes: as for B1
As for B2, the ELISA reading in [1] turned out to be 2.03; in [2], 0.38; in assay [3] it was 0.07; in assay [4], 0.24; in assay [5], 0.11; in assay [6] it was 0.19. The ELISA reading in assay [7] was determined as 0.11; in assay [8] it was 0.96; in [10], 0.55; in assay [11], 0.08; in [12] it was 1.27; in assay [13], 0.15. Further, the “VEGF-E-mediated Survival % Inhibition (Average)” value in assay [9] turned out to be 62%. Besides, the “VEGF-E-mediated Survival % Inhibition (n = 1)” value in assay [9] amounted to 69%. In addition, the “VEGF-E-mediated Survival % Inhibition (n = 2)” value in [9] was determined as 54%.

B3: 24C9 (antibody, V domains shown)
VH: EVQLVESGGGLVKPGGSLRLSCAASGFTFSTYSMNWVRQAPGKGLEWVSFISGRSSYIYYADSVKGRFTISRDNAKNSLYLQMNSLRAEDTAVYYCSKDDWFEELWGQGTLVTVSS
VL: DIQMTQSPSSLSASVGDRVTITCRASQGIRNDLGWYQQKPGKAPKRLIYATFSLQSGVPSRFSGSGSGTEFTLTISSLQPEDFATYYCLQHNRYPWTFGQGTKVEIK
notes: as for B1
As to B3, the ELISA reading in assay [1] came to 3.67; in assay [2], 0.54; in assay [3] it was 0.07; in assay [4], 0.2; in [5], 0.13; in assay [6], 0.5. Besides, the ELISA reading in [7] worked out at 0.11; in assay [8] it was 2.14; in assay [10] it was 1.45; in assay [11] it was 0.09; in assay [12], 2.48; in [13], 0.23. Besides, in [9], the “VEGF-E-mediated Survival % Inhibition (Average)” value worked out at 72%. Moreover, in assay [9], the “VEGF-E-mediated Survival % Inhibition (n = 1)” value was found to be 72%. For the same molecule, the “VEGF-E-mediated Survival % Inhibition (n = 2)” value in [9] worked out at 72%.

B4: 33B1 (antibody, V domains shown)
VH: EVQLVESGGGLVKPGGSLRLSCAASGFTFSSYTMNWVRQAPGKGLEWVSFIDSRSSYIYYADSVKGRFTISRDNAKNSLYLQMNSLRAEDTAVYYCSKDDWFEELWGQGTLVTVSS
VL: DIQMTQSPSSLSASVGDRVTITCRASQGIRNDLGWYQQKPGKAPKRLIYATSSLQSGVPSRFSGSGSGTEFTLTISSLQPEDFATYYCLHHNSFPWTFGQGTKVEIK
notes: as for B1
Take B4: the ELISA reading in assay [1] worked out at 2.71; in [2], 0.55; in assay [3], 0.08; in [4] it was 0.25; in [5], 0.12; in assay [6], 0.23. Further, the ELISA reading in assay [7] was determined as 0.2; in assay [8], 1.62; in assay [10], 1.1; in assay [11], 0.08; in assay [12], 2.32; in assay [13], 0.2. The “VEGF-E-mediated Survival % Inhibition (Average)” value in [9] was 67%. Also, in assay [9], the “VEGF-E-mediated Survival % Inhibition (n = 1)” value is 66%. Further, the “VEGF-E-mediated Survival % Inhibition (n = 2)” value in [9] was found to be 68%.

B5: 30A1 (antibody, V domains shown)
VH: QLQLQESGPGLVKPSETLSLTCTVSGGSISSPNYYWGWIRQPPGKGLEWIGTIYYSGNTFYNPSLKSRVTISVDTSKNQFSLKLSSVTAADTAVYYCATQQLVLYYFDFWGQGTLVTVSS
VL: EIVLTQSPGTLSLSPGKRAALSCRASQSISSSYLAWYQQKPGQAPRLLIYGASSRATGIPDRFNGSGSGTDFTLTISRLEPEDFAVYYCQQLGSSITFGQGTRLEIK
notes: as for B1
Turning to B5, the ELISA reading in [1] worked out at 4.52; in [2], 3.37; in [3] it was 0.15; in assay [4], 1.58; in assay [5], 0.5; in assay [6], 1.77. For the same molecule, the ELISA reading was 1.11 in [7]; 6 in [8]; 4.28 in [10]; 0.27 in assay [11]; 4.78 in [12]; 0.87 in assay [13]. The “VEGF-E-mediated Survival % Inhibition (Average)” value in assay [9] turned out to be 58%. For the same molecule, the “VEGF-E-mediated Survival % Inhibition (n = 1)” value in assay [9] turned out to be 58%. The “VEGF-E-mediated Survival % Inhibition (n = 2)” value in [9] is 59%.

B6: 27D10 (antibody, V domains shown)
VH: QLQLQESGPGLVKPSETLSLTCTVSGGSISSRSDYWGWIRQPPGKGLEWIGTIYYSGSTFYNPSLKSRVTISVDTSKNQFSLKLSSVTAADTAVYYCARQQLVLYYFDYWGQGTLVTVSS
VL: not shown
notes: as for B1
With B6, the ELISA reading in [1] is 4.09; in [2], 1.87; in assay [3], 0.12; in assay [4], 0.89; in assay [5], 0.25; in [6] it was 1.36. Moreover, the ELISA reading in assay [7] amounted to 0.41; in assay [8], 3.95; in assay [10], 3.79; in [11], 0.14; in assay [12], 4.02; in [13], 0.54. Besides, the “VEGF-E-mediated Survival % Inhibition (Average)” value in assay [9] was found to be 57%. Also, the “VEGF-E-mediated Survival % Inhibition (n = 1)” value in [9] came out at 50%. Moreover, in assay [9], the “VEGF-E-mediated Survival % Inhibition (n = 2)” value amounted to 64%.

B7: 27A3 (antibody, V domains shown)
VH: QLQLQESGPGLVKPSETLSLTCTVSGGSISSRSDYWGWIRQPPGKGLEWIGTIYYSGDTYYNPSLKSRVTISVDTSKNQFSLKLSSVTAADTAVYYCARQQLVLYYFDYWGQGTLVTVSS
VL: EIVLTQSPGTLSLSPGERATLSCRASQSVSSSYLAWYQQKPGQAPRLLIYATSNRATGIPDRFSGSGSGTDFTLTISRLEPEDFAVYYCQQHGSSPPLTFGGGTKVEIK
notes: as for B1
In the case of B7, the ELISA reading in assay [1] was 4.79; in [2], 2.05; in assay [3], 0.15; in assay [4], 0.96; in [5], 0.54; in assay [6], 2.3. In addition, the ELISA reading in assay [7] amounted to 0.4; in [8] it was 5.26; in assay [10], 3.93; in assay [11], 0.26; in assay [12], 4.72; in [13] it was 1.26. For the same molecule, in [9], the “VEGF-E-mediated Survival % Inhibition (Average)” value turned out to be 58%. In addition, the “VEGF-E-mediated Survival % Inhibition (n = 1)” value in assay [9] amounted to 63%. Further, the “VEGF-E-mediated Survival % Inhibition (n = 2)” value in assay [9] worked out at 52%.

The record behind these values is US20100260765A1 (AstraZeneca / MedImmune, published 2010).
